Legend:
[1] = target: T1, bacterially expressed recombinant p27 (full–length p27) (human, UniProt P46527 1-198); assay: pull-down; GST fusion proteins bound on glutathione Sepharose beads incubated for 2 h at 4 °C with purified bacterial p27, p27 mutants or p27 fragments; extensive washing; bound p27 detected by Western blot; conditions: both partners purified
T1 construct: p27^Kip1 (CDKN1B), human, full length; No tag is named for the full-length protein; also called purified p27; source: bacteria, purified by heat treatment (95 °C, ultracentrifugation)

[2] = target: T2, GST–hIC EpoR (273–508aa), cytoplasmic domain of human EpoR (human, UniProt P19235 273-508); assay: as above; conditions: both partners purified
T2 construct: also called GST–EpoR; source: E. coli BL21, purified on glutathione Sepharose beads
T2 sequence (looked up): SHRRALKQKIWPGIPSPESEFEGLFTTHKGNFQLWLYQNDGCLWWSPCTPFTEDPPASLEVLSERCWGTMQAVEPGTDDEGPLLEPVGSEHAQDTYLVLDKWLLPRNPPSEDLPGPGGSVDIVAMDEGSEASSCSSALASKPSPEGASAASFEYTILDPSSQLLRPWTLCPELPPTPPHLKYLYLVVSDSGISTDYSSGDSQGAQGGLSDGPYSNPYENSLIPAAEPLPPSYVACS

B1: GST–hIC EpoR N (273–433aa) (domain or fragment, human, UniProt P19235 273-433, looked up)
chain: SHRRALKQKIWPGIPSPESEFEGLFTTHKGNFQLWLYQNDGCLWWSPCTPFTEDPPASLEVLSERCWGTMQAVEPGTDDEGPLLEPVGSEHAQDTYLVLDKWLLPRNPPSEDLPGPGGSVDIVAMDEGSEASSCSSALASKPSPEGASAASFEYTILDPSS
notes: also called N–terminal truncated cytoplasmic domain of EpoR; source: E. coli BL21, purified on glutathione Sepharose beads
Q: Does B1 bind [1]?
A: binds

B2: p27 CK– (R30A, L32A, F62A, F64A) (natural protein, human, UniProt P46527 1-198, looked up)
chain: MSNVRVSNGSPSLERMDARQAEHPKPSACANAFGPVDHEELTRDLEKHCRDMEEASQRKWNADAQNHKPLEGKYEWQEVEKGSLPEFYYRPPRPPKGACKVPAQESQDVSGSRPAAPLIGAPANSEDTHLVDPKTDPSDSQTGLAEQCAGIRKRPATDDSSTQNKRANRTEENVSDGSPNAGSVEQTPKKPGLRRRQT
notes: p27^Kip1 (CDKN1B), human, with four point mutations; source: bacteria, purified by heat treatment
Q: Does B2 bind [2]?
A: binds

B3: p27 ΔSH3 (amino acids 94, 95, 96 PPK to GCA) (natural protein, human, UniProt P46527 1-198, looked up)
chain: MSNVRVSNGSPSLERMDARQAEHPKPSACRNLFGPVDHEELTRDLEKHCRDMEEASQRKWNFDFQNHKPLEGKYEWQEVEKGSLPEFYYRPPRGCAGACKVPAQESQDVSGSRPAAPLIGAPANSEDTHLVDPKTDPSDSQTGLAEQCAGIRKRPATDDSSTQNKRANRTEENVSDGSPNAGSVEQTPKKPGLRRRQT
notes: p27^Kip1 (CDKN1B), human, with point mutations in the proline-rich region; also called p27 ∆SH3; ΔSH3 mutant; source: bacteria, purified by heat treatment
Q: Does B3 bind [2]?
A: binds
